The RNAGym collection of RNA variant scans (doi:10.7554/elife.80360)

B1: Twister Ribozyme (parent)
chain: AACACUGCCAAUGCCGGUCCCAAGCCCGGAUAAAAGUGGAGGGGGCGG

Variants of: B1
Assay: self-cleavage, relative activity (ratio to wild type); higher = more cleavage; co-transcriptional

Row | Variant | self-cleavage
1 | AACACUGCCAAUGCCGGUCCAAAGCCCGGAUGAAAGUGGAGGGGGCGG [C21A A32G] | 0.0702
2 | AACACUGCCAAUGCCGGUCCAAAGCUCGGAUAAAAGUGGAGGGGGCGG [C21A C26U] | 0.07
3 | AACACUGCCAAUGCCGGUCCAAAGCACGGAUAAAAGUGGAGGGGGCGG [C21A C26A] | 0.069
4 | AACACUGCCAAUGCCGGUCCGAAGCCCGGAUAAAAGUGGAGGGCGCGG [C21G G44C] | 0.0843
5 | AACACUGCCAAUGCCGGUCCGAAGCCCGGAUAAAAGUGGAGGGUGCGG [C21G G44U] | 0.102
6 | AACACUGCCAAUGCCGGUCCGAAGCCCGGAUAAAAGUGGAGGGAGCGG [C21G G44A] | 0.0938
7 | AACACUGCCAAUGCCGGUCCGAAGCCCGGAUAAAAGUGGAGGGGGUGG [C21G C46U] | 0.0875
8 | AACACUGCCAAUGCCGGUCCUAAGCCCAGAUAAAAGUGGAGGGGGCGG [C21U G28A] | 0.102
9 | AACACUGCCAAUGCCGGUCCUAAGCCCCGAUAAAAGUGGAGGGGGCGG [C21U G28C] | 0.0826
10 | AACACUGCCAAUGCCGGUCCAAAGCCCGGAUAAAAGUCGAGGGGGCGG [C21A G38C] | 0.101
11 | AACACUGCCAAUGCCGGUCCAAAGCCCUGAUAAAAGUGGAGGGGGCGG [C21A G28U] | 0.129
12 | AACACUGCCAAUGCCGGUCCAAAGCCCCGAUAAAAGUGGAGGGGGCGG [C21A G28C] | 0.149
13 | AACACUGCCAAUGCCGGUCCGAAGCCCGGAUAAUAGUGGAGGGGGCGG [C21G A34U] | 0.0291
14 | AACACUGCCAAUGCCGGUCCGAAGCCCGGAUAAGAGUGGAGGGGGCGG [C21G A34G] | 0.0977
15 | AACACUGCCAAUGCCGGUCCAAAGCCCGGAUAAAAGUGGAGGGGGCCG [C21A G47C] | 0.0714
16 | AACACUGCCAAUGCCGGUCCAAAGCCCGGAUAAAAGUGGAGGGGGCUG [C21A G47U] | 0.117
17 | AACACUGCCAAUGCCGGUCCAAAGCCCGGAUAAAAGUGGAGGGGGCGU [C21A G48U] | 0.154
18 | AACACUGCCAAUGCCGGUCCAAAGCCCGGAUAAAAGUGGAGGGGGCGA [C21A G48A] | 0.107
19 | AACACUGCCAAUGCCGGUCUCAAGCCCGGAUAAAAGUGGAGGGGGCCG [C20U G47C] | 0.165
20 | AACACUGCCAAUGCCGGUCUCAAGCCCGGAUAAAAGUGGAGGGGGCUG [C20U G47U] | 0.564
21 | AACACUGCCAAUGCCGGUCCUAAGCCCGGAUAUAAGUGGAGGGGGCGG [C21U A33U] | 0.0831
22 | AACACUGCCAAUGCCGGUCCUAAGCCCGGAUACAAGUGGAGGGGGCGG [C21U A33C] | 0.119
23 | AACACUGCCAAUGCCGGUCCUAAGCGCGGAUAAAAGUGGAGGGGGCGG [C21U C26G] | 0.0581
24 | AACACUGCCAAUGCCGGUCCUAAGCUCGGAUAAAAGUGGAGGGGGCGG [C21U C26U] | 0.0769
25 | AACACUGCCAAUGCCGGUCCGAAGCCCGGAUAAAAGUGGAGGGGGCAG [C21G G47A] | 0.0718
26 | AACACUGCCAAUGCCGGUCCGAAGCCCGGAUAAAAGUGGAGGGGGCUG [C21G G47U] | 0.142
27 | AACACUGCCAAUGCCGGUCCGAAGCCCGGUUAAAAGUGGAGGGGGCGG [C21G A30U] | 0.0816

Row | Variant | self-cleavage
28 | AACACUGCCAAUGCCGGUCCGAAGCCCGGAUAAAAGUGGAGGGGGCGU [C21G G48U] | 0.0902
29 | AACACUGCCAAUGCCGGUCCGAAGCCCGGAUAAAAGUGGAGGGGGCGC [C21G G48C] | 0.0934
30 | AACACUGCCAAUGCCGGUCCAAAGCCCGGAUAAAAGUGGAGGGCGCGG [C21A G44C] | 0.0966
31 | AACACUGCCAAUGCCGGUCCGAAGCCCGGACAAAAGUGGAGGGGGCGG [C21G U31C] | 0.0753
32 | AACACUGCCAAUGCCGGUCCGAAGCCCGGAAAAAAGUGGAGGGGGCGG [C21G U31A] | 0.0515
33 | AACACUGCCAAUGCCGGUCCGAAGCCCGGAUAAAAUUGGAGGGGGCGG [C21G G36U] | 0.0888
34 | AACACUGCCAAUGCCGGUCCGAAGCCCGGAUAAAAAUGGAGGGGGCGG [C21G G36A] | 0.0998
35 | AACACUGCCAAUGCCGGUCCGAAGCCCGGAUAAAAGUGGAGUGGGCGG [C21G G42U] | 0.111
36 | AACACUGCCAAUGCCGGUCCAAAGCCCGGAUAAGAGUGGAGGGGGCGG [C21A A34G] | 0.052
37 | AACACUGCCAAUGCCGGUCCAAAGCCCGGAUAACAGUGGAGGGGGCGG [C21A A34C] | 0.0648
38 | AACACUGCCAAUGCCGGUCCAAACCCCGGAUAAAAGUGGAGGGGGCGG [C21A G24C] | 0.0911
39 | AACACUGCCAAUGCCGGUCCAAAACCCGGAUAAAAGUGGAGGGGGCGG [C21A G24A] | 0.0758
40 | AACACUGCCAAUGCCGGUCCGAAGCCCGCAUAAAAGUGGAGGGGGCGG [C21G G29C] | 0.123
41 | AACACUGCCAAUGCCGGUCCGAAGCCCGUAUAAAAGUGGAGGGGGCGG [C21G G29U] | 0.0841
42 | AACACUGCCAAUGCCGGUCUCAAGCCCGGAUAAAAGAGGAGGGGGCGG [C20U U37A] | 0.474
43 | AACACUGCCAAUGCCGGUCUCAAGCCCGGAUAAAAGCGGAGGGGGCGG [C20U U37C] | 0.192
44 | AACACUGCCAAUGCCGGUCCAAUGCCCGGAUAAAAGUGGAGGGGGCGG [C21A A23U] | 0.091
45 | AACACUGCCAAUGCCGGUCCUAAGCCAGGAUAAAAGUGGAGGGGGCGG [C21U C27A] | 0.0634
46 | AACACUGCCAAUGCCGGUCCUAAGCCUGGAUAAAAGUGGAGGGGGCGG [C21U C27U] | 0.104
47 | AACACUGCCAAUGCCGGUCCGAAGCCCGGAUAAAAGUGGACGGGGCGG [C21G G41C] | 0.577
48 | AACACUGCCAAUGCCGGUCCGAAGCCCGGAUAAAAGUGGAUGGGGCGG [C21G G41U] | 0.32
49 | AACACUGCCAAUGCCGGUCCGAAGCCCGGAUAAAAGUGGAGGCGGCGG [C21G G43C] | 0.0506
50 | AACACUGCCAAUGCCGGUCCAAAGCCCGGAUAAAAGUGGAAGGGGCGG [C21A G41A] | 0.27
51 | AACACUGCCAAUGCCGGUCCGAAGCCCGGAUACAAGUGGAGGGGGCGG [C21G A33C] | 0.152
52 | AACACUGCCAAUGCCGGUCCGAAGCCCGGAUAGAAGUGGAGGGGGCGG [C21G A33G] | 0.03
53 | AACACUGCCAAUGCCGGUCCGAAGACCGGAUAAAAGUGGAGGGGGCGG [C21G C25A] | 0.0791
54 | AACACUGCCAAUGCCGGUCCUAAGCCCGGAUAAAAGUGGAGGGGGUGG [C21U C46U] | 0.0929
